These results are taken from US20240166695A1, “PEPTIDIC POSITIVE ALLOSTERIC MODULATORS TARGETING TRPV1” (priority 2021, published 2024).

The subject of test [1] is TRPV1 channel. The experiment in a line: FRET imaging of TRPV1-YFP and design-CFP co-expressed in HEK293 cells. As to conditions: for FRET signal between design-CFP and TRPV1-YFP: co-expressed in cells; for FRET efficiency: spectraFRET, design-CFP and TRPV1-YFP; for FRET ratio max: HEK293 cells. In kind it is binding. The source says:
Any design candidate can be assessed for the ability to bind TRPV1 using techniques including, but not limited to, the FRET protocols and SPR protocols described herein. For example, complementary fluorescent proteins (including, but not limited to, GFP CFP, YFP, and the like) may be fused recombinantly to a designed peptide and to TRPV1 for assessment of TRPV1 binding via FRET. In some non-limiting embodiments, binding of a candidate modulator to TRPV1 can be confirmed by observing a FRET ratio max of at least 1.25 when YFP is fused to the C-terminus of TRPV1, CFP is fused to the C-termini of a candidate peptide. In some embodiments, binding of a candidate modulator to TRPV1 can be confirmed by observing a FRET efficiency greater than about 4% (e.g., at least 5%, or at least 7%) when YFP is fused to the C-terminus of TRPV1, CFP is fused to the C-termini of a candidate peptide. FRET measurements can be made by co-expressing the FRET-labeled constructs in host cells, exciting the CFP construct in the host cells at 458 inn, and observing YFP emission at 530 nm. CFP emission can be separated from YFP emission by fitting of standard spectra acquired from cells expressing YFP or CFP only.
FRET efficiency is defined in its usual definition; it is inversely related to the sixth power of the distance between complementary fluorescent proteins on the binding partners. FRET efficiency is quantified from measurements of the fluorescence emission spectra, using the established method.
FRET ratios can be calculated from the increase in YFP emission due to energy transfer as described previously (Qiu, et al. J. Biol. Chem. 2005, 280, 24923, incorporated herein by reference in its entirety). CFP emission can be separated from YFP emission by fitting of standard spectra acquired from cells expressing only YFP or CFP. The fraction of YFP-tagged molecules that are associated with CFP-tagged molecules, Ab, is calculated as Ab=1/(1+KD/[Dfree]), where KD is the dissociation constant and [Dfree] is the concentration of free donor molecules. The FRET Ratio=1+Ab*(FRET Ratiomax−1). Regression analysis can be used to estimate Ab in individual cells. From each cell, the FRET ratioexp is experimentally determined. The predicted Ab value is then computed by adjusting two parameters, FRET Ratiomax, and apparent KD Ab was in turn used to give a predicted FRET ratiopredicted. By minimizing the squared errors (FRET ratioexp. FRET ratiopredicted)^2, KD was determined.
Apparent FRET efficiency can be calculated from the enhancement of YFP acceptor fluorescence emission due to energy transfer from the CFP donor using previously described methods. [see, e.g., Yang and Zheng, et al. Proc. Natl. Acad. Sci. U.S.A. 2010, 107 7083, which is incorporated herein by reference]. RatioA0, and RatioA1, are measured to calculate FRET efficiency. RatioA0, represents the ratio between acceptor emission intensities (in the absence of the donor) upon excitation at the donor and acceptor excitation wavelengths, and can be calculated at the YFP peak emission wavelength. A particular advantage of quantifying RatioA0 for FRET measurement is that changes in fluorescence intensity caused by many experimental factors cap be cancelled out by the ratiometric measurement:
To experimentally test whether our designed proteins work as PAM of TRPV1, we first tested whether they could interact with TRPV1 channel in live cells. We genetically fused YFP and CFP to the C termini of TRPV1 and our designs, respectively.
For spectroscopic imaging in FRET experiments, the imaging system was built upon a Nikon TE2000-U microscope. The excitation light was generated by an Ar laser. The duration of light exposure was controlled by a computer-driven mechanical shutter (Uniblitz). A spectrograph (Acton SpectraPro 2150i) was used in conjunction with a CCD camera (Roper Cascade 128B). […]

Test [2] has as its target T1, TRPV1 (UniProt Q704Y3).
T1 construct: other: TRPV1 alone; absence of extracellular calcium; other: design co-expressed with TRPV1; extracellular calcium p; repeated caps; fused on or other part: Possibly YFP at the C-terminus
The experiment in a line: Whole-cell patch-clamp recordings of capsaicin activation, desensitization and tachyphylaxis. Format: cell-based. The following applies: design co-expressed with TRPV1; for acute current desensitization upon capsaicin activation: extracellular calcium present. As for the experimental part:
Patch-clamp recordings were performed with a HEKA EPC10 amplifier controlled by PatchMaster software (HEKA). Whole-cell recordings at ±80 mV were used to test whether an ANAP-incorporated channel was functional. Patch pipettes were prepared from borosilicate glass and fire-polished to resistance of ˜4 MΩ. For whole-cell recording, serial resistance was compensated by 60%. A solution with […], 10 mM glucose, 0.2 mM EDTA and 3 mM HEPES (pH 7.2) was used in both bath and pipette for concentration response curve measurements in TRPV1, TRPV2 and TRPV3. To measure calcium-dependent ligand-induced desensitization and tachyphylaxis, 2 mM CaCl2 was added to the solution. Membrane potential was clamped at ±80 mV. Current was sampled at 10 kHz and filtered at 2.9 kHz. All recordings were performed at room temperature (22° C.) with the maximum variation of 1° C.
Ligands were perfused to membrane patch by a gravity-driven system (RSC-200, Bio-Logic). Bath and ligand solution were delivered through separate tubes to minimize the mixing of solutions. Patch pipette was placed in front of the perfusion tube outlet.
(The patch-clamp technique gives a direct electrical read-out from membranes.)

Test [3] has as its target T2, ARD of TRPV1 (Rattus norvegicus, UniProt O35433).
T2 construct: made in house; host or cells: E. coli BL21 (DE3), pET-32a
The experiment in a line: Surface plasmon resonance, ARD immobilized on CM5 sensor chip. Format: binding. As to conditions: protein boiled to disrupt three-dimensional structure. The text has this: To further quantify the binding affinity of the designs to the ARD, we expressed and purified both designed proteins and the ARD in E. coli. The DNA sequence of each designed protein and the ARD of TRPV1 (see their primary protein sequences in Table 6) was synthesized and inserted into the pET-32a plasmid after codon optimization for protein expression in bacteria E. coli BL21 (DE3) was transformed with the recombinant plasmids. A single colony was inoculated into media containing ampicillin; cultures were incubated in 37° C. at 200 rpm. Once cell density reached to OD 0.8-1.0 at 600 inn, IPTG was introduced for induction. SDS-PAGE was used to monitor the expression. […] The protein expression was stopped by centrifugation at 8000 rpm for 30 min. We collected cells and resuspended in resuspension solution containing 50 mM Tris-HCl, 150 mM NaCl, 10% glycerol and protease inhibitor (pH 7.4). The cells were lysed by sonication. The supernatant after centrifugation was kept for future purifications. Taget proteins were obtained by Ni column, and then further purified by the reversed phase HPLC on a Jupiter C4 column (10×250 mm, Phenomenex, Torrance, CA, USA). […]
We then quantified the binding of De1 and De3 to the ARD protein fixed on the sensor chip by surface plasma resonance (SPR) (FIGS. 6A and 6B). […] Steady-state SPR responses were measured and used to determine the KD values. […]
(Surface plasmon resonance follows binding to a sensor surface in real time, without labels.)

Test [4] has as its system TRPV1. The experiment in a line: Calcium imaging (Fluo-4) of capsaicin activation in transfected HEK293 cells. Format: cell-based. The following applies: 0.5 nM capsaicin; design co-expressed with TRPV1. The method, then:
We then investigated whether, upon binding of the designed proteins, TRPV1 activation was positively modulated. […] Probenecid (2 mM) was included in all solutions to prevent Fluo-4 leakage from cells. At the end of incubation, cells were washed three times with ECS and incubated in the same solution for another 20 min at room temperature to complete the intracellular hydrolysis process of the AM ester, which converts the non-fluorescent Fluo-4/AM into the fluorescent version Fluo-4.
Coverslip with dye-loaded cells was placed in the quick-release magnetic chamber (Warner) and mounted on the stage of a Nikon Eclipse TE2000-U microscope system equipped with a Roper Cascade 128B CCD camera. Fluo-4 was excited by an Argon laser with a filter set of Z488/10 (excitation), z488rdc (dichroic) and recorded through an emission filter HQ5001p (all from Chroma). The duration of light exposure was controlled by a computer-driven mechanical shutter (Uniblitz). Cell images were acquired sequentially with an exposure period of 200 ms at an interval of 1 s. The shutter and the camera were controlled and synchronized by MetaMorph software (Universal Imaging).

The subject of test [5] is TRPV1 channel. The experiment in a line: Airyscan super resolution imaging of TRPV1-YFP and De1-CFP in HEK293 cells. In kind it is cell-based. The following applies: co-transfected HEK293 cells. The method, then:
Super-resolution fluorescence microscopy was performed with the Zeiss LSM 880 fluorescence microscope with Airyscan. YFP fused to TRPV1 and CFP fused to the designed proteins were excited by laser line at 488 nm and 458 nm, respectively. We used a 60× oil-immersion objective (NA 1.42) in these experiments. Fluorescence imaging was performed with the default settings for CFP and YFP channels in the microscope controlled by the Zeiss ZEN software. Overlay of YFP- and CFP-channel images was also done in ZEN.

T2 sequence (O35433 with tags, fused parts or gaps): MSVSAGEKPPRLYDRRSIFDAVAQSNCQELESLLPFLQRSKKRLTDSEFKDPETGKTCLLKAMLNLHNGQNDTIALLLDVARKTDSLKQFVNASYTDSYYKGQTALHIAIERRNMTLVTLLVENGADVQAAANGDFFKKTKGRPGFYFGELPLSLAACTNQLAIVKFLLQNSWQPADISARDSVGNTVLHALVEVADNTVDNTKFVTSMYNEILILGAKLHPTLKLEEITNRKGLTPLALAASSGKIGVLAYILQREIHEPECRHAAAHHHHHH

B1: De4: design on scaffold 2HDZ used as negative control because it cannot refold well, SEQ ID NO: 38 (protein)
chain: LPESPRFAQKIWQQSVIGDYLARFKNDRVKALKAMEDSSNNSSMHRFAEFFAKAFEDLHRYLEEL
For B1, in test [1], the “FRET signal between design-CFP and TRPV1-YFP” value was “no FRET occurred”; the FRET efficiency is recorded as 3.8%. Moreover, the “acute current desensitization upon capsaicin activation” value in test [2] is reported as “no such an effect was observed”.

B2: De1: designed 93-residue protein binder to TRPV1 ARD, scaffold 1QZM, SEQ ID NO: 8 (protein)
chain: NGYSSEDKLRIAKRHLLPKQIERNALKKGELFVSEFAILGIILFYTDEAGVRGLEREISKLCRKAVKQLLLDKSTTSSHASGFHLHDYLGVMR
Take B2: in test [1], the FRET ratio max amounted to 3.86; the “FRET signal between design-CFP and TRPV1-YFP” value was “positive FRET signals”. Besides, the “binding with the ARD after boiling of the protein” value in test [3] was “completely abolished”. Further, the “activation of TRPV1 by low capsaicin concentration when co-expressed with design” value in test [4] is on record as “sufficient to activate TRPV1 channels”. Moreover, the “acute current desensitization upon capsaicin activation” value in test [2] is recorded as “significantly slowed down”. The capsaicin induced tachyphylaxis result in test [2] (repeated capsaicin application) is “capsaicin induced tachyphylaxis was reduced”. In addition, the “co-localization with TRPV1 on cell membrane” value in test [5] is on record as “clear co-localization”.

B3: De2: optimized version of De1, 93 residues, scaffold 1QZM, SEQ ID NO: 37 (protein)
chain: NGYWSEDKERIAKRHLLPKQIERNALKKGELKVWEFAIFGIILFYTWEAGVRGLEREISKLCRKAVKQLLLDKSTTRSWASGFHLHDYLGVMR
B3: in test [1], the FRET ratio max is 2.35; the “FRET signal between design-CFP and TRPV1-YFP” value is given as “positive FRET signals”; the FRET efficiency is reported as 7.4%. The “acute current desensitization upon capsaicin activation” value in test [2] is given as “no such an effect was observed”.
